Interaction rating score data for one substance are collected here from patent US20040018199A1.

For one assay, the target named is Cadherin 11 (human) (UniProt P55287). Briefly: yeast two-hybrid (PathCalling).
For assay [1], the target named is Prey 2832217 protein (C11orf15 protein) (human) (UniProt Q9NQ34). Briefly: yeast two-hybrid (PathCalling).
The next assay addresses Lumican (human) (UniProt P51884). As to the kind of experiment: yeast two-hybrid (PathCalling); forty-eight independent experiments.
Chain of UniProt P51884 (P51884 217-338 limits assumed, form in doubt): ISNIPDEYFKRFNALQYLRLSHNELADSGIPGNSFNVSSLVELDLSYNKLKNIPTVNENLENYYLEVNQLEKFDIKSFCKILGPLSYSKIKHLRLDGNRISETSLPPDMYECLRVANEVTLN

Chain of UniProt Q9NQ34 (Q9NQ34 35-167 limits assumed, form in doubt): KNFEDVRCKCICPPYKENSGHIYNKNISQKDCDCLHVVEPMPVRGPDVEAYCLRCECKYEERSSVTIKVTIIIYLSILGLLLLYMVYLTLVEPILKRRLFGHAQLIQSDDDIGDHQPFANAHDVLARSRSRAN
Chain of UniProt P55287 (P55287 154-796 limits assumed, form in doubt): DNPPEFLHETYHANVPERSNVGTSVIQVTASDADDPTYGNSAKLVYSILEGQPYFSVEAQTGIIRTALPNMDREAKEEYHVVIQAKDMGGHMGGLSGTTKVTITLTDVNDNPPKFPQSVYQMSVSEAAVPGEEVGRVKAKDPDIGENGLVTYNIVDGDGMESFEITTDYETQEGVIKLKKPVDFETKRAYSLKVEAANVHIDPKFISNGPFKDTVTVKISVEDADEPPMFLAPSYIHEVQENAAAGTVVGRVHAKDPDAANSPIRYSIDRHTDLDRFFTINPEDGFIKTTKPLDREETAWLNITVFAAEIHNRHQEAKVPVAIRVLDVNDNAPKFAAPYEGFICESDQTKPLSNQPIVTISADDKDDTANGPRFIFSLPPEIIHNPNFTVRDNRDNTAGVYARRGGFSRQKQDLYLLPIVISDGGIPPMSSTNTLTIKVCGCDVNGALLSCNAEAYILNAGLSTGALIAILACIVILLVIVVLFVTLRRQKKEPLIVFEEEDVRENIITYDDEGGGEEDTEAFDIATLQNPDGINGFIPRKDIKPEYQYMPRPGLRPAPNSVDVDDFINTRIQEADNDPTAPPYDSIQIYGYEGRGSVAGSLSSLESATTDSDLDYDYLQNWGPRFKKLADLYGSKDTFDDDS

Turning to “CG54020 (EPHA8), ephrin type-A receptor 8 (from UniProt P29322 28-207)”, the interaction rating score with Cadherin 11 (human) turned out to be 2.7; in assay [1], 9.6; in the assay with Lumican (human), 9.99.
